# Laboratory results from the DeepSol protein solubility set.
# Experiment: soluble on expression in E. coli; label from the status in PepcDB or PDB records
row,Sequence,soluble on expression in E. coli
1,MSTLRVACVIPTYNGCQDLARLLDSLEIQSAPFDTLIVDSSSSDGTYELALARCANVLRIDSRDFNHGGTRQLMVERNADYDLYVFMTQDAYLEDAEGLARIVAPFADPQVGAVCGRQLPHLDASPLASHARLFNYPPTSQVKSLADVPALGIKTAFMSNSFSAYRREALMQVGGFPNHVILSEDMYVGAKMLLAGWKVAYEGSACCRHSHNYSLKEEFRRYFDIGVFHAREPWIRQAFGGAGGEGLRYVQSELRFLGPGRLGQWPGSLLRNAVKLFAYKLSQQERYLPLGLKRKLGMYKRYWDSPYALEHHHHHH,soluble
2,MAIIKCDVCAYPFSNKQDPRCSKCHPKITPPSKPKNPYALPMKQQLILGPIVGIVVGLMFAACEGNRPGRATTACMLRARAQAIAAGNPNYTHAKEVSPTRAMLVFRKDGRTRNTNFFCDSLVTDREA,not soluble
3,GMSQATAKVNREVQAFLQDLKGKTIDHVFFVACGGSSAIMYPSKYVFDRESKSINSDLYSANEFIQRNPVQLGEKSLVILCSHSGNTPETVKAAAFARGKGALTIAMTFKPESPLAQEAQYVAQYDWGDEALAINTNYGVLYQIVFGTLQVLENNTKFEQAIEGLDQLQAVYEKALKQEADNAKQFAKAHEKESIIYTMASGANYGVAYSYSICILMEMQWIHSHAIHAGEYFHGPFEIIDESVPFIILLGLDETRPLEERALTFSKKYGKKLTVLDAASYDFTAIDDSVKGYLAPLVLNRVLRSYADELAEERNHPLSHRRYMWKVEY,soluble
4,VIDSMTSTDLLPEEPKWVPLSSESIQQYVDEGKVVFVDVTADWCVTCKANKIGVLLQEPVYSELNSANVVPMQGDWTVPSEKITSYLQEHGRFGVPFNVVYGPSAPNGIELPVILNEKVVMDAIKKAGNK,soluble
5,LTSTLLRLSTDKIGAIIAIENQDSLESYVNIGYRVTSDFSPELLVTIFYNKQSPLHDGAVIVRDYQIVSVSSYFPMTRQLIDVSYGSRHRSALGLTEKCDAIVFIVSETTGKISVAVRGVIK,not soluble
6,MEDDDLLPLSALQHYLYCPRQCALIHLEQQWEDNAQTAEGRLLHERADKPAMETRRGVRTASAMALASPRLGIAGVADIVEFHDWSDGERAYPVEYKRGRPKAHRADEVQLCAQALCLEDMLGAAIPEGALYYGKTRRRRPVAFDNALRRLTLETIAAARAMFDSRQTPRMGYEARRCDACSLLERCQPRLLDRAQSVDQWLKQQWDALEHHHHHH,not soluble
7,MLFPTTIAGSLPKPEWLAEPNKLWAPWKSTGAELLRAKRDATILALKLQEDSGIDIVTEGEQARQHFVHGFLEAVEGIDFAHKVEMGIRNDRYKAMVPQVVAPLRLKGRVHGFEGQIARAHSTHKIKFTLPGPMTIIDTIADRHYGDRVKMAFAFAELLNEEAKALQADGIDMIQFDEPAFNVYMSEAADWGVKALERAAQDLTCATAVHICYGYGIKANTDWKETLGAEWRQYEDIFPAIDASSIQQVAVECRNSKVPLELLSLLKGKIVQAGVIDVASDEVETAEDVCATIEAVMQHVPKSNIIATTNCGMAPMRREIAEAKLAALGAGAELARERFKLEHHHHHH,soluble
8,MSLIDIHSHIIPNIDDGSKSLEMSLEMLKRAEESGTKKIIATPHFFKGYWTENYNSVKDKVKELNKLAKENNLNIEIYPGQEVFFNNYILEDFKLGDIGTLGESRYMLIEFPMDKIYFQKAIDEIYELKIKGITPVIAHPERYVDFINNPEEINQFIDEGYLFQLNGGSLTGLFGKEVKKTAELFLENNLYSFIGSDAHSNGNRNTSLKEACEVANSISRGASRRFEANGLALLNNEKIVFQGEGHHHHHH,soluble
9,MTDGTPTTLTDRIEAALRDVRDPNADLSVFDAGFVENIDAADGEVTIEADLTALDGQTSTQVVQAMLHAVDDVDGVDSVHVERTTPTGEGNAGVESFDRVVAVASAKGGVGKSTVATHLACALAADNDVALFDADIHGPNVPELLDVSGPVHSSEEGDPLPVRAGDMDVMSVGLMESGAPLAWRGAMAHDALNDLFENTAWRNDDVLVLDLPPGTGDVVLTTLQEVPVDGVVVVTTPFHASVSDTSRTVELFRDNDVPVLGTVVNMAEYVCDCCGEPNDLFTGDALGDLDAEVLAELPFSHDLQGTPAPGSVPDAVSSLGDAVESALDTAGEVGVDPTADIRDLQPQERKDRVRERFTALDSGEPFVLVSDRDPTPVGQFLGRLAEAPREAFDPFEVRRETPEAWVLETAKPLEHHHHHH,soluble
10,LKEDKEKYPIFVFIHKDKVTISIDTTGDALHKRGYREKANKAPIRETLAAGLIYLTPWKAGRVLVDPMCGSGTILIEAAMIGINMAPGLNREFISEKWRTLDKKIWWDVRKDAFNKIDNESKFKIYGYDIDEESIDIARENAEIAGVDEYIEFNVGDATQFKSEDEFGFIITNPPYGERLEDKDSVKQLYKELGYAFRKLKNWSYYLITSYEDFEYEFGQKADKKRKLYNGMLKTNFFQYPGPKPPRNNK,not soluble
11,MGSDKIHHHHHHMNTKKESALSFPSAGIESFGERLKELMGDESLRAFANAIDTSEGGVRKWFTQSTMPSFDKMVRIARRYNVNLEWLCTGEGPKFPGETAAYESVICKTEEFSEEYALIDGYHTQVSTGHGAQWDNERVRRKLAFRSKWLRYRGLQPENLRVVFAKGDSMEPTIHSGDSILVDITDANLSDGSIFVLRIGDDLFAKRVQVHIDGSITIISDNKEYREQRVPVAELGLLSVVGKVVWIGKDVK,not soluble
12,RPRNALLLLADDGGFESGAYNNSAIATPHLDALARRSLLFRNAFTSVSSCSPSRASLLTGLPQHQNGMYGLHQDVHHFNSFDKVRSLPLLLSQAGVRTGIIGKKHVGPETVYPFDFAYTEENGSVLQVGRNITRIKLLVRKFLQTQDDRPFFLYVAFHDPHRCGHSQPQYGTFCEKFGNGESGMGRIPDWTPQAYDPLDVLVPYFVPNTPAARADLAAQYTTVGRMDQGVGLVLQELRDAGVLNDTLVIFTSDNGIPFPSGRTNLYWPGTAEPLLVSSPEHPKRWGQVSEAYVSLLDLTPTILDWFSIPYPSYAIFGSKTIHLTGRSLLPALEAEPLWATVFGSQSHHEVTMSYPMRSVQHRHFRLVHNLNFKMPFPIDQDFYVSPTFQDLLNRTTAGQPTGWYKDLRHYYYRARWELYDRSRDPHETQNLATDPRFAQLLEMLRDQLAKWQWETHDPWVCAPDGVLEEKLSPQCQPLHNEL,soluble
13,PTILVVGDLMIDHYIWGECERISPEAPVQVIDVKRETKTLGGACNVMSNLIALEASVLSCGVVGEDLAGRELLGFLQELGMESKGIITQKGRPTTQKSRIIASNQQVVRVDWENKSPISEESEEAMIAYIRSKLSLCDAVILSDYGKGVLTPRVCQTIIQMAKTLQKRVLVDPKGRDYSKYRGASLLTPNKKEAKEATGIEINDEASLKKALECLKKECELEFSVITLSEDGIGIFDQALERIPTIAQEVYDVTGAGDTVIASLAYGLSLGYPLRECALFANAAAAVVVGKIGSATATHGEIAEYLHS,not soluble
14,MGSDKIHHHHHHMSKRKLTTKFEEEPLNFGTGMWNVGLTPNVCRCTLLLPTSCMTCLVGTGRTASGRWPATYVPFDESAISELKRYASFIAISNHSDLLSDPSGSRRFICINITGRIRNGVAINYLQPYAQAVQELREGECFYFSPEEEAVLMENNQEFELQTPVGHLFQQYFRSADEGEKCETLLAVDILGRIQKKSGFKLSATKIVHLGRILRKLGVPCKKMKNGNFYCVVEL,not soluble
15,MATHKLSFFEKLANTFGALYRHQAQQFPRRLAILKAVGKHELAPPRSADIPAIKADWAKLQKFIETKQYVNLSIKESLVYSAVALEVVFWFFVGEMIGRRYIFGYIVPANYVSKDTKAKVAEKKRLAALEA,not soluble
16,METETDDSETSLNDSFGNKDGLELLEYERATLAKTLPASVLFVVANGLGLERLFLEHLILFSDRRLLALVLNTNEHDESYFVSKLKEHNVECDPKVINSEVSIKDRQSIYLEGGVQFCSSRVLLVDLLQNRIPTDRIAAIFVYRAHQTLNAFQDSFILRLYREKKPDGTVKAFTDFPNSLSSLGQLQRLVDRLYIRHVELMPRFSSIIESELNRYQLKTAIFSVDVPTPLRRVHRTIIEFIKVCVRDLRTCSTSGKQTDEQNEEMIHVPWAATRLEKRLHDRRGHISEKQQRLLNDVASLREILQLSENMDVATVLSRLQVLKNDRTVLEEHSGWLLSPSFNRIMEDLLTIAGVTNGKADYKKFATPAKWTVLSEILREIKMLPVEKKDRGNDSPSVLVITSSEDLSRQVTDVVRYGINKMKWMTWRQLGYKSTQEMPEDEPLWDPDTISQLMRSSVDGESKSEVIANVQKTQKTTARAAQKRRKHAEELSGFSSDHRVQTNLIQFGILQYKRRKSGNEASTSQETTEWEVKEEMEEIEEITKNIGDLEAELVVSTTRERERYTLLKLLETKKPRAIVLYTMSLQTLRQIEIYRSTNPNRSLHVYWLQYTESTEESRYLESINRETMSFELLIREQGTLLISREFNVDREDAPRLKISTRDGGGARRDGAVDPRDQMDPEEELERPKIIVDMREFNSELPTVLYTKGYNVVATTIEIGDYILSPNIAIERKALDDLTQSLQSGRVFKQIEQMLEHYDCTVLLIESNRKFETKIVNGGPFQGELSRHCREIRSIFCSLIWANPKMRCVWTISPTNSAEFFSELKLSAPEPDVDRAISLKADQVECSSQELTDSEASTSTKAKKGKKWKPNPTVIRTLTQIFGIKASEAHNLLANSSIKTLADLFSLNITASHLSDFIPSTSADFIKDLSTFNFGRK,not soluble
17,MSLAELNFKAIEEKWQKRWLEAKIFEPNIRDKPKEKKFYITVAFPYLSGHLHVGHARTYTIPDVIARFKRMQGYNVLFPMAWHITGSPIVGIAERIKNRDPKTIWIYRDVYKVPEEILWTFEDPINIVKYFMKAAKETFIRAGFSVDWSREFYTTSLFPPFSKFIEWQFWKLKEKGYIVKGAHRVRWDPVVGTPLGDHDLMEGEDVPILDYIIIKFELRENGEVIYLPAATLRPETVYGVTNMWVNPNATYVKAKVRRKDKEETWIVSKEAAYKLSFQDREIEVIEEFKGEKLIGKYVRNPVSGDEVIILPAEFVDPDNATGVVMSVPAHAPFDHVALEDLKRETEILEKYDIDPRIVENITYISLIKLEGYGDFPAVEEVNKLGIKSQKDKEKLEQATKTIYKAEYHKGIFKVPPYEGKPVQEVKEAIAKEMLEKGIAEIMYEFAEKNVISRFGNRAVIKIIHDQWFIDYGNPEWKEKARKALERMKILPETRRAQFEAIIDWLDKKACARKIGLGTPLPWDPEWVIESLSDSTIYMAYYTISRHINKLRQEGKLDPEKLTPEFFDYIFLEEFSEDKEKELEKKTGIPAEIIHEMKEEFEYWYPLDWRCSGKDLIPNHLTFFIFNHVAIFREEHWPKGIAVNGFGTLEGQKMSKSKGNVLNFIDAIEENGADVVRLYIMSLAEHDSDFDWRRKEVGKLRKQIERFYELISQFAEYEVKGNVELKDIDRWMLHRLNKAIKETTNALEEFRTRTAVQWAFYSIMNDLRWYLRRTEGRDDEAKRYVLRTLADVWVRLMAPFTPHICEELWEKLGGEGFVSLAKWPEPVEEWWNETIEAEEEFIRSVMEDIKEIIEVAKIENAKRAYIYTAEDWKWKVAEVVSEKRDFKSSMEELMKDSEIRKHGKEVAKIVQKLIKERTFDVKRINEEKALREAKEFMEKELGIEIIINPTEDKGGKKKQAMPLKPAIFIEEGHHHHHH,not soluble
18,MTSNKQLINERDHAESALADMYFAATGDEPEWSNWFGFSDAVDAVVDRIADLEAKQPSPVVPEGLVKAVRFYEQVKRENPPVETEAWKDAIDWVLKESCQAVNIDTNGD,soluble
19,MATTCQKRRYGTFRTGISKPGLSTRRFQHRDFSHGDFGTGTFRTAVSPPLTFSSPPTSTVATPYFPMRFINVKSHVSRPPPLHGDIPIGHEGTRVSRHVDDRCGLVVVSRHGRAGGCLSRLEHHHHHH,not soluble
